Measured values as given in patent US9938505B2, “Polypeptide composition and culture method for pluripotent stem cell using same” (FUJIFILM Corporation, priority 2013, dated 2018).

How the values were obtained:
iPS cells [1] = experiment: Evaluation of maintenance of undifferentiated state (colony form, NANOG staining); assay type: cell-based, human; conditions: FIGS. 4A to 4E; after culture for 1 month
Procedure: iPS cells collected in the same manner as in <Cell adhesiveness evaluation 1> were suspended in TeSR2. The iPS cells were seeded into 6-well plate (Tissue culture-treated, Falcon), onto which each of the samples 1, 2, 5, 6, and 7 used in <Cell adhesiveness evaluation 1> was adsorbed in the same manner as in <Cell adhesiveness evaluation 1>, and cultured in a CO2 incubator at 37° C. Except for the day after the seeding, the medium was replaced every day. In the same method as described above, the cells were subcultured every six days. FIGS. 3A to 3E show forms of the iPS cells cultured on each of the samples.
After being cultured for 1 month under the conditions described above, the cells were immobilized using 4% paraformaldehyde and treated with 1% Triton-X/PBS so as to enhance the membrane permeability. After the cells were subjected to a blocking treatment using an IMAGE IT SIGNAL ENHANCER (trade name, Invitrogen), an anti-human NANOG antibody (AF 1997, R&D Systems, Inc.), an ALEXA FLUOR 555 binding rabbit anti-goat IgG antibody (Invitrogen), and DAPI (Dojindo Molecular Technologies, Inc.) were added thereto for labeling, and the cells were imaged using a fluorescence microscope. FIGS. 4A to 4E show the fluorescence microscopic images.
FIGS. 3A and 4A show the iPS cells cultured on RCP-1; FIGS. 3B and 4B show the iPS cells cultured on RCP-11; FIGS. 3C and 4C show the iPS cells cultured on natural human vitronectin; FIGS. 3D and 4D show the iPS cells cultured on rLaminin-5; and FIGS. 3E and 4E show the iPS cells cultured on rLaminin-511. The scale bar in the images indicates […]. In FIGS. 3A to 3E, the images on the left side are full images of the colony, and the images on the right side are magnified images. In FIGS. 4A to 4E, the images on the left side are images of the cells stained with DAPI, and the images on the right side are images of the cells stained with an anti-NANOG antibody. The scale bar in FIGS. 3A to 4E indicates 200 μm.

iPS cells [2] = experiment: Growth evaluation, growth curves over 8 days; assay type: cell-based, human; conditions: FIG. 2
Procedure: The iPS cells collected in the same manner as in <Cell adhesiveness evaluation 1> were seeded into a 96-well plate, onto which RCP-1, RCP-11, and natural human vitronectin were adsorbed, at a ratio of 250 cells/well and cultured for 8 days in a 5% CO2 incubator at 37° C. The number of adhesive cells after different days of culture was measured in the same manner as in <Cell adhesiveness evaluation 1>, thereby obtaining growth curves. […] In FIG. 2, a black rhombus indicates a case using RCP-1, and a black square indicates a case using RCP-11.
From the increase and decrease in the obtained number of cells, the doubling time was calculated. As a result, it was confirmed that it takes 46.4±2.1 hours for the number of cells to be doubled in a case where RCP-1 is used, and 67.7±2.1 hours in a case where RCP-11 is used.

iPS cells [3] = experiment: Cell adhesiveness evaluation 3 (RCP-1 at 125 to 1,000 pmol/cm^2); assay type: cell-based, human; conditions: amount added equal to or greater than 125 pmol/cm^2
Procedure: The cell adhesiveness was evaluated in the same manner as in <Cell adhesiveness evaluation 1>, except that RCP-1 was used after the concentration thereof was adjusted to 125 pmol/cm^2 to 1,000 pmol/cm^2 by using PBS. In Table 9, the cell adhesion rate is expressed as relative value calculated by regarding a cell adhesion rate with respect to the culture vessel, onto which natural vitronectin is adsorbed at a concentration of 130 pmol/cm^2, as being 100. N=3.

[4] = Aggregation after dialysis (removal of urea); assay type: physicochemical; conditions: after stepwise dialysis against PBS, 1.5 M NaCl, 0.5 M L-arginine, 1 mM EDTA, pH 7.4
Procedure: For RCP-1 to RCP-10 and RCP-17, each of the purified polypeptide solutions was dialyzed using SLIDE-A-LIZER (trade name, 3.5 K MWCO.). Basically, by using a dialysis buffer (PBS, 1.5 M NaCl, 0.5 M L-arginine, 1 mM EDTA, pH 7.4) as an outer dialysate, urea was removed by stepwise dialysis. The concentration of the end-product of dialysis was calculated from the absorbence at 280 nm by using NANODROP (trade name, Thermo Fisher Scientific Inc.).
Furthermore, the indices of hydrophobicity determined for each of the amino acids were summed up, the obtained value was divided by the number of the amino acids, and the outcome was determined as the GRAVY value (see Kyte J., Doolittle R. F. (1982), J. Mol. Biol, 157: 105-132). The GRAVY value is an index of the hydrophilicity and hydrophobicity of a polypeptide calculated from the degree of hydrophobicity of the amino acids contained in each polypeptide. The greater the GRAVY value, the more the polypeptide is hydrophobic, and the smaller the GRAVY value, the more the polypeptide is hydrophilic. The results are shown in Table 4. • Whether or not aggregation was occurred was evaluated based on the scale of G, A, and B as shown below. The results are summarized in Table 4. • G: The formation of an aggregate was not observed. • A: The formation of particles having a particle size of about 100 nm was observed. • B: The formation of an aggregation of particles having a particle size of equal to or greater than 1 mm was visually observed.

Molecule	NANOG expression / maintenance of undifferentiated state (iPS cells [1])	number of cells on Day 8 of culture, as fraction of the case where RCP-1 was used (iPS cells [2])	adhesiveness of iPS cells (in words) (iPS cells [3])	cell growth properties (in words) (iPS cells [2])	Aggregation [4]
RCP-11: recombinant polypeptide SEQ ID NO: 24; positions 1-459, corresponds to the sequence of natural human vitronectin, GPLG on N-terminal (protein, GPLG N-terminal extension; Synthetic peptide RCP-11) GPLGDQESCKGRCTEGFNVDKKCQCDELCSYYQSCCTDYTAECKPQVTRGDVFTMPEDEYTVYDDGEEKNNATVHEQVGGPSLTSDLQAQSKGNPEQTPVLKPEEEAPAPEVGASKPEGIDSRPETLHPGRPQPPAEEELCSGKPFDAFTDLKNGSLFAFRGQYCYELDEKAVRPGYPKLIRDVWGIEGPIDAAFTRINCQGKTYLFKGSQYWRFEDGVLDPDYPRNISDGFDGIPDNVDAALALPAHSYSGRERVYFFKGKQYWEYQFQHQPSQEECEGSSLSAVFEHFAMMQRDSWEDIFELLFWGRTSAGTRQPQFISRDWHGVPGQVDAAMAGRIYISGMAPRPSLAKKQRFRHRNRKGYRSQRGHSRGRNQNSRRPSRATWLSLFSSEESNLGANNYDDYRMDWLVPATCEPIQSVFFFSGDKYYRVNLRTRRVDTVDPPYPRSIAQYWLGCPAPGHL	strongly expressed NANOG in the entirety of the colony	about ⅓	–	–	–
RCP-1: recombinant polypeptide SEQ ID NO: 14; human vitronectin positions 1-55, 269-459, methionine on N-terminal (protein, Synthetic peptide RCP-1) MDQESCKGRCTEGFNVDKKCQCDELCSYYQSCCTDYTAECKPQVTRGDVFTMPEDEPSQEECEGSSLSAVFEHFAMMQRDSWEDIFELLFWGRTSAGTRQPQFISRDWHGVPGQVDAAMAGRIYISGMAPRPSLAKKQRFRHRNRKGYRSQRGHSRGRNQNSRRPSRATWLSLFSSEESNLGANNYDDYRMDWLVPATCEPIQSVFFFSGDKYYRVNLRTRRVDTVDPPYPRSIAQYWLGCPAPGHL	strongly expressed NANOG in the entirety of the colony	–	equivalent to the cell adhesion rate of the natural vitronection	higher cell growth properties compared to RCP-11	A (The formation of particles having a particle size of about 100 nm was observed.)
